Consider seven substances from patent US20160024159A1.

Common to all, as to assay: cell-based or functional assay
Experiment [1] has as its target human voltage-gated sodium channel Nav1.7 (human) (UniProt Q15858).
Experiment [2] addresses TTX-sensitive Nav channels in mouse DRG neurons.
For experiment [3], the target named is human Nav1.7 voltage-gated sodium channel (human) (UniProt Q15858).
Experiment [4] concerns the target human voltage-gated sodium channel Nav1.3 (human) (UniProt Q9NY46).
Experiment [5] addresses human voltage-gated sodium channel Nav1.4 (human) (UniProt P35499).
The target of experiment [6] is human voltage-gated sodium channel Nav1.5 (human) (UniProt Q14524).
Chain of human voltage-gated sodium channel Nav1.5 (human) (Q14524 whole entry): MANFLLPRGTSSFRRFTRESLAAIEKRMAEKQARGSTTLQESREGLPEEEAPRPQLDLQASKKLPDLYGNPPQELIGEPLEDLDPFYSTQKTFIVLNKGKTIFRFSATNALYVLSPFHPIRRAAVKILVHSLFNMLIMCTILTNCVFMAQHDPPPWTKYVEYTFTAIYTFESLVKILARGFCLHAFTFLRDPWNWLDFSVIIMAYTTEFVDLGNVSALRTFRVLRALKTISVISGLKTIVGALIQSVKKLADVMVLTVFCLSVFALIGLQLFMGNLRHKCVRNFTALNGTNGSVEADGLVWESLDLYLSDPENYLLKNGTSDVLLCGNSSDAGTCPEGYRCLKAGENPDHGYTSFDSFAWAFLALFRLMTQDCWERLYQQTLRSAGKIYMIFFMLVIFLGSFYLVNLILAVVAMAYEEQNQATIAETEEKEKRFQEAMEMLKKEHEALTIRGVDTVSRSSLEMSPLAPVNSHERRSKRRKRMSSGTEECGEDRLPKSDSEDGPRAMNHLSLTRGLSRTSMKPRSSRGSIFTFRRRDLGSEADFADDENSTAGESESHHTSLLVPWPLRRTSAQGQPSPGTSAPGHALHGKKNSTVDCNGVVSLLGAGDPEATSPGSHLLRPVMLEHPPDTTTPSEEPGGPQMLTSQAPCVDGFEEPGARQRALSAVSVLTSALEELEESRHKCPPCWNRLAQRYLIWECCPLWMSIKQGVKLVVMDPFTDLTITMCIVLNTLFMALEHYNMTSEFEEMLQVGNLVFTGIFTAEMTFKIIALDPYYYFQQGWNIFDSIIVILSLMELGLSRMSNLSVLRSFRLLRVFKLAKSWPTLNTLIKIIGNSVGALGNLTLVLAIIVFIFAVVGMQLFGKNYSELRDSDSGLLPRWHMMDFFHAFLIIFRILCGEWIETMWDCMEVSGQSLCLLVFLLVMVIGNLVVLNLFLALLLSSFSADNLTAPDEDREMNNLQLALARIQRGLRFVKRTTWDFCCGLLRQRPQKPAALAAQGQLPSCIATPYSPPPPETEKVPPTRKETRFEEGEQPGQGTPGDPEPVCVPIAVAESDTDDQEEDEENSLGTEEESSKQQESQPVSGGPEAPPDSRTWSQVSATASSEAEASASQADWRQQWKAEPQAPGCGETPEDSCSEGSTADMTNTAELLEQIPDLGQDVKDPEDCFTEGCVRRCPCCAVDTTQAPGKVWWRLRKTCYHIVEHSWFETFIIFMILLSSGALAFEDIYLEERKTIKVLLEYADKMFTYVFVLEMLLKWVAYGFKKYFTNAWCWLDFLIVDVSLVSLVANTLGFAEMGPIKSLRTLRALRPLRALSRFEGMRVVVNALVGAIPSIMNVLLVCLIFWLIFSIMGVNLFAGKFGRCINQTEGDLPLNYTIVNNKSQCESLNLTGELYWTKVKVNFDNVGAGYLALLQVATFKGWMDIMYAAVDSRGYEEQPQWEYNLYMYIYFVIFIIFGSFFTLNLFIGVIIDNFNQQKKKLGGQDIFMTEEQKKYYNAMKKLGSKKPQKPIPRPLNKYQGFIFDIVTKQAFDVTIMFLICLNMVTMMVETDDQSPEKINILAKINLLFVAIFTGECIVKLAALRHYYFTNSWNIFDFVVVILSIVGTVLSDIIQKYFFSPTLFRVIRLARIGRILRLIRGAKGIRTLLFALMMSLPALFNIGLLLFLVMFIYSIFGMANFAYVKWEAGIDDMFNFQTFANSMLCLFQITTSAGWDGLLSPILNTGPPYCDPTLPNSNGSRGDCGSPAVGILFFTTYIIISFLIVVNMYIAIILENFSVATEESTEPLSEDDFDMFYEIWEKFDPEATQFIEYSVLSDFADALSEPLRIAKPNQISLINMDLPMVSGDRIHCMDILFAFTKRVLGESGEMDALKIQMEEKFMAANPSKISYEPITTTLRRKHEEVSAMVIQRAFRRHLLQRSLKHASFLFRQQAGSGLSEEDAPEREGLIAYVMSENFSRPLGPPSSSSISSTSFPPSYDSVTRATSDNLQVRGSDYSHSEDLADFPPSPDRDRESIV

Chain of human voltage-gated sodium channel Nav1.7 (human) (Q15858 whole entry): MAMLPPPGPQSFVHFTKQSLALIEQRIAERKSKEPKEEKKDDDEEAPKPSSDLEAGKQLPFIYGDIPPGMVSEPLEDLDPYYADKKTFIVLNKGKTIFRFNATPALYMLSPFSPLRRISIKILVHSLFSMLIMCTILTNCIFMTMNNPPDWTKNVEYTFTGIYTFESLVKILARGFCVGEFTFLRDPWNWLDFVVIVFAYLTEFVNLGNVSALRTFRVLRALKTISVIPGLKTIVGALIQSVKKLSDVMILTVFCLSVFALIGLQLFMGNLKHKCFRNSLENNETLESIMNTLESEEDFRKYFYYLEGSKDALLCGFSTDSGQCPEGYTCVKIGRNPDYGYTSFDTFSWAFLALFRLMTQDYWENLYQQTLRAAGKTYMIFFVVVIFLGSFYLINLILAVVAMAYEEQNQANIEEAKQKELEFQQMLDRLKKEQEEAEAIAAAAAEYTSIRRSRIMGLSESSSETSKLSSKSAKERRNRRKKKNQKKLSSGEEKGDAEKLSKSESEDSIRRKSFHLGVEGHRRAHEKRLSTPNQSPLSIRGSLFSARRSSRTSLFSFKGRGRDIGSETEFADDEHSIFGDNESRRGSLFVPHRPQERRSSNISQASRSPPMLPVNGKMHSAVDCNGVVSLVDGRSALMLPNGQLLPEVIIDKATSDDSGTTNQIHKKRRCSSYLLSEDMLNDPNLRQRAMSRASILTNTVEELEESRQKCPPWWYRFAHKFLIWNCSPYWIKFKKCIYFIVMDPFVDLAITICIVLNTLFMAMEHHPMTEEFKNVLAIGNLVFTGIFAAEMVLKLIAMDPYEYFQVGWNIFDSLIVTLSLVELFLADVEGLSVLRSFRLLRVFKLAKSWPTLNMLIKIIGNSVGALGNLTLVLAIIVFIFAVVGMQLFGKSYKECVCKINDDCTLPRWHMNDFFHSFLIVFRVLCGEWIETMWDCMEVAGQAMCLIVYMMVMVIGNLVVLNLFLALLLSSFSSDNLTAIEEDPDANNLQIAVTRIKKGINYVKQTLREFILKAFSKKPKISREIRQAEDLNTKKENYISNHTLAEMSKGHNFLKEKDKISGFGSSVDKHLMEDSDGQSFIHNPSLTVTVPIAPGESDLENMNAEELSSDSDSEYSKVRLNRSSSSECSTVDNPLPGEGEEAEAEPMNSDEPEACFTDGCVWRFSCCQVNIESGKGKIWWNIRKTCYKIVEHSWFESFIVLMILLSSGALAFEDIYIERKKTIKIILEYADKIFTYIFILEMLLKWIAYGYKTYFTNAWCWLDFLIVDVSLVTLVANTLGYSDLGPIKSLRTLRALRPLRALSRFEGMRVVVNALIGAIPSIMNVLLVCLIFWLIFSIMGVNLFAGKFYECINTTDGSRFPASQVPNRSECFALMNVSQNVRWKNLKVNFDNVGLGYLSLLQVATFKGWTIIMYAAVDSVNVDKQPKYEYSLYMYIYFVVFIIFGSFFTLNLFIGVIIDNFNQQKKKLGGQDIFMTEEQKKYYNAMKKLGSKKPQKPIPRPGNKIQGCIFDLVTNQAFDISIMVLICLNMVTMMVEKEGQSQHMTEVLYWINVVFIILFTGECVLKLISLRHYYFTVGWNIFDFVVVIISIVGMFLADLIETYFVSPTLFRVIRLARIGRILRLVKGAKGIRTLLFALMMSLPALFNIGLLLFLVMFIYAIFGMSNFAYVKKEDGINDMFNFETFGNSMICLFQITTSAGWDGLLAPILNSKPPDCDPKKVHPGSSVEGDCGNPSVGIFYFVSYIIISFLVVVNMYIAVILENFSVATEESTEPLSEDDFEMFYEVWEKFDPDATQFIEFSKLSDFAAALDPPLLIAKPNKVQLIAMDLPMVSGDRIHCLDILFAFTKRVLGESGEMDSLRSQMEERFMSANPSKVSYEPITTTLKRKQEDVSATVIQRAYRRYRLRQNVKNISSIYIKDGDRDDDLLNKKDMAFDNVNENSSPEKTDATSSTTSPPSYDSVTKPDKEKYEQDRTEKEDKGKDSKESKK
Chain of human Nav1.7 voltage-gated sodium channel (human) (Q15858 whole entry): as above

Regarding “CyA-[Nle6; Val8; Lys17; Glu28]JzTx-V(1-29) (peptide)”, in experiment [1], the PX hNav1.7 Tonic IC50 was 26.6 nM.
With “Pra-[Nle6;5-BrW24;Glu28]JzTx-V(1-29) (peptide)”, the WCPC Mean IC50, partially inactivated in experiment [2] was 3.8 nM; in experiment [3] it was 0.13 nM.
Turning to “Pra-[Nle6;Glu12,28]JzTx-V(1-29) (peptide)”, the WCPC Mean IC50, partially inactivated in experiment [2] turned out to be 144 nM.
Turning to “Pra-[Nle6;Glu14,28]JzTx-V(1-29) (peptide)”, the WCPC Mean IC50, partially inactivated in experiment [2] worked out at 99.8 nM.
In the case of “[Cit7;Glu20;Tyr28]JzTx-V(1-29) (peptide)”, the IC50, IonWorks Quattro electrophysiology in experiment [4] was > 7 µM; in experiment [5], > 7 µM; in experiment [6], > 7 µM; in experiment [1], 5.8 µM.
Take “[Nle6;Pra11;Glu20;Trp29]JzTx-V(1-29) (peptide)”: the IC50, IonWorks Quattro electrophysiology in experiment [1] is 0.026 µM.
Consider “[Nva7;Glu20;Tyr28]JzTx-V(1-29) (peptide)”, for which the IC50, IonWorks Quattro electrophysiology was > 7 µM in experiment [4], > 7 µM in experiment [5], > 7 µM in experiment [6] and 4.5 µM in experiment [1].
